Data published in patent US9605038B2, “Fusion peptide comprising dhFas-1 domain and MMP substrate and use thereof for preventing and treating rheumatoid arthritis” (Kyungpook National University Industry-Academic Cooperation …, priority 2010, dated 2017).
Changes are numbered by the printed parent chain. Entries after “also recorded” stand apart in the source; their conditions may differ.

Assays:
[1] = tested on: human fibroblast-like synovicyte (FLS); assay: βig-h3-mediated cell adhesion test, FLS; format: cell-based
Experimental: (§1) βig-h3 was introduced into a 96-well plate at a concentration of 5 ug/ml, and coated for 14 hours at 4° C. In DMEM+0.5% BSA (Bovine Serum Albumin) culture medium, human fibroblast-like synovicyte (FLS) was introduced, and HsFJ24, HsFJ25 or HsFJ27 at concentrations was injected thereto, followed by mixing. The resultant mixture was cultured at 37° C. for 30 minutes, and plated on a coated well. It was cultured for 2 hours, and washed with PBS (phosphate buffered saline) so as to remove unattached cells, and then added with a substrate (4-Nitrophenyl N-acetyl-β-D-glucosaminide, Sigma, U.S.) to be activated by β-N-acetylglucosaminidase within the cell, followed by culturing at 37° C. for 1 hour. Then, a glycine EDTA solution (0.5M EDTA, 50 mM glycine, pH 10.4) was added thereto, and the coloring extent according to the number of attached cells was measured by absorbance.

[2] = tested on: mouse fibroblast (NIH3T3); assay: βig-h3-mediated cell adhesion test, NIH3T3; format: cell-based; details: NIH3T3, βig-h3 5 ug/ml coat
Experimental: as §1, with “Human βig-h3” for “βig-h3”, “fibroblast (NIH3T3)” for “fibroblast-like synovicyte (FLS)”, “hsdhFas-1 peptide” for “HsFJ24, HsFJ25 or HsFJ27”
Also, a structurally modified peptide of a fas-1 domain of mouse βig-h3 was synthesized as a recombinant peptide (hereinafter, referred to as ‘mdhFas-1peptide’, see FIG. 2), and a mouse cell line, that is, NIH3T3 cell line, was used to test the inhibiting effect by mdhFas-1 peptide on adhesion and migration of a Synovial membrane cell in the same manner as that in the test using human βig-h3.
as §1, with “mouse fibroblast (NIH3T3)” for “human fibroblast-like synovicyte (FLS)”, “MFK23, MFK24, MFK25” for “HsFJ24, HsFJ25”, “MFK27” for “HsFJ27”

NIH3T3 = assay: βig-h3-mediated cell migration test (transwell), NIH3T3; format: cell-based, mouse; details: 7 hours
Experimental: In the lower compartment of a transwell filter having an 8 um hole size allowing cells to be migrated, βig-h3 was cultured at 4° C. for 12 to 14 hours and coated. In DMEM+0.5% BSA culture medium, NIH3T3 was introduced, and administered with MFK23, MFK24 or MFK25 at concentrations, followed by mixing. The resultant mixture was cultured at 37° C. for 30 minutes, inoculated into the upper chamber of the coated well, and cultured for 7 hours at 37° C. Then, the cells migrated to the lower compartment of the filter were fixed by paraformaldehyde, and strained by a crystal violet. The cells […] remaining in the upper chamber were wiped out and the number of cells migrated to the lower compartment was microscopically counted.

[3] = tested on: collagen-induced arthritis (CIA) mouse model; assay: Arthritis therapeutic effect in CIA mouse (clinical arthritis index); format: in vivo
Experimental: A CIA mouse model having the similar characteristic to that of human rheumatoid arthritis was prepared according to the description in a known literature (Protocol for the successful induction of collagen-induced arthritis (CIA) and collagen antibody-induced arthritis (CAIA) in mice. Chondrex, Redmond, Wash.): Bovine type 2 collagen 100 ug was mixed with Freund's complete adjuvant, and hypodermically inoculated into the tail of the mouse. After 3 weeks, bovine type 2 collagen 100 ug was mixed with Freund's incomplete adjuvant, and inoculated again into the tail of the mouse. Then, the mouse was used in the experiment.
In order to find out the therapeutic effect of arthritis in a CIA model, for four weeks from the onset (the 23rd day) of arthritis following the second injection of the bovine type 2 collagen, MFK23 or MFK24 was daily injected into the abdominal cavity in doses of 0.1 mg/kg, 1 mg/kg, 10 mg/kg and 30 mg/kg. As a control group, the same amount of PBS was injected into the abdominal cavity. From the 23rd day to the 50th day, by using a Clinical arthritis index, the severity of arthritis was daily determined. The determination was based on the following data.
0; no symptom, 1; edema in one articulation or light edema, 2; severe edema in 2 or more articulations, 3; severe edema in most articulations, 4; severe edema in the whole of legs.

[4] = tested on: foot tissue of CIA mouse (Synovial membrane, cartilage, bones; CD31, ICAM-1); assay: Histologic and immunohistochemistry test on foot tissue of CIA mouse; format: in vivo; details: CIA mouse, 50th day
Experimental: In order to determine the action mechanism of an arthritis therapeutic effect in a CIA model, on the 50th day following the second injection of the bovine type 2 collagen (after 4 weeks from the onset (the 23rd day) of arthritis following the second injection of the bovine type 2 collagen), foot tissues of treatment groups were separated and subjected to histologic analysis. Then, in the tissues, a change in the expression of inflammatory mediators was examined.
A tissue sample was prepared by the following process. Skin on the foot tissue was removed. Then, the tissue was fixed in 10% formalin solution for 2 days, and demineralized in 10% EDTA solution. The demineralized tissue was subjected to a dehydrating process and a clearing process, paraffin-embedded, and was made into a fragment with a thickness of 3 um by a microtome. The tissue fragment was deparaffinized and re-dehydrated by 100% xylene and ethanol, and then non-specific peroxidase within the tissue was blocked by a solution of 0.3% hydrogen peroxide dissolved in 100% methanol.
In order to carry out an immunohistochemistry test, binding of non-specific protein was blocked by 5% BSA. Then, the tissue was cultured, together with each primary antibody (as endothelial cell markers, an antibody to CD31, and an antibody to ICAM-1 (intercellular adhesion molecule-1)), at 4° C. for 12 to 14 hours, and washed with washing buffer (0.1% BSA, 0.2% gelatin, 0.05% saponin). It was cultured together with a secondary antibody labeled with biotin at room temperature for 30 minutes, was washed, reacted with Vectastatin ABC kit (Vector Laboratories, U.S.), and was mounted with Eukitt mounting media (Fluka, Germany) for observation.

[5] = tested on: TNF-a, RANKL, IL-1β, CCL-2, MMP-1, MMP-3, IL-6, VCAM-1; assay: Semiquantitative reverse transcription PCR of inflammatory mediators in CIA mouse foot tissue; format: in vivo; details: CIA mouse, 30 mg/kg, FIG. 26
Experimental: The distribution of inflammation in the foot tissue may be somewhat differently observed according to the regions, and its quantitative research is difficult. Thus, in the hind leg of a mouse CIA model treated with MFK24, the change in inflammatory mediators according to the onset of arthritis was measured by a semiquantitative reverse transcription PCR method using a Taqman probe, as described below.
From a mouse CIA model, a foot tissue was separated, and its skin was removed. The remaining tissue was grinded by a tissue homogenizer, and an extraction reagent (Easy-spim™, Intron) was used to extract all RNAs. They were quantified, and for 7 μg of RNA, a reverse transcriptase reaction was carried out by using AMV reverse transcriptase (Roche, 0.5 ul), oligo dT (Roche, 1 ul), and 10 mM dNTP (Takara, 2 ul) RNase inhibitor (Roche, 0.1 ul). For TNF-a, RANKL, IL-1β, CCL-2, MMP-1, MMP-3, IL-6, VCAM-1 and 18S RNA of a mouse, semiquantitative PCR was performed by using primers (Bioneer, Daejeon) and a Taqman probe (Roche, Germany) in LC480 (Roche, Germany), so as to determine the number of transcripts. Quantitative analysis of the transcripts was performed through comparison with 18S RNA transcripts. The primer pairs for the semiquantitative PCR are noted in [table8].

ICAM-1 and RANKL = assay: Immunoblot of ICAM-1 and RANKL in CIA mouse model; format: in vivo; details: 30 mg/kg, FIG. 27
[6] = Toxicity test in CIA mouse (weight, serologic test, blood test); details: CIA mouse, 22nd day vs 48th day
Experimental: On the 48th day, a serologic test and a blood test were carried out.

[7] = tested on: human fibroblast (NIH3T3); assay: Cell adhesion test on human βig-h3 coated plate (hsdhFas-1); format: cell-based; details: human βig-h3 5 ug/ml coat, FIG. 3
Experimental: as §1, with “Human βig-h3” for “βig-h3”, “fibroblast (NIH3T3)” for “fibroblast-like synovicyte (FLS)”, “hsdhFas-1 peptide” for “HsFJ24, HsFJ25 or HsFJ27”

B1: HsFJ24: fusion peptide having sequential links of hsdhFas-1, MMP1 substrate GPQGIAG (SEQ ID NO: 6), and QERGDSLA (SEQ ID NO: 10) (protein)
chain: RALPPRERSRLLGDAKELANILKYHIGDEILVSGGIGALVRLKSLQGDKLEVSLKNNVVSVNKEPVAEPDIMEFGPQGIAGVDGQERGDSLAGLE
modifications: hsFJ24
- βig-h3-mediated adhesion of FLS [1]: concentration-dependently inhibited

B2: HsFJ25: fusion peptide having sequential links of hsdhFas-1, MMP consensus substrate GPLGIAG (SEQ ID NO: 7), and QERGDSLA (SEQ ID NO: 10) (protein)
chain: B1 chain with Q77L
modifications: hsFj25
- βig-h3-mediated adhesion of FLS [1]: concentration-dependently inhibited

B3: HsFJ27: fusion peptide having sequential links of hsdhFas-1, MMP3 substrate GPLGLWARG (SEQ ID NO: 8), and QERGDSLA (SEQ ID NO: 10) (protein)
chain: MALFVRLLALALALALGPAATLARSFRALPPRERSRLLGDAKELANILKYHIGDEILVSGGIGALVRLKSLQGDKLEVSLKNNVVSVNKEPVAEPDIMEFGPLGLWARGVDQERGDSLAGLE
modifications: hsFJ27
- βig-h3-mediated adhesion of FLS [1]: concentration-dependently inhibited

B4: MFK12: a peptide having mdhFas-1 (as a basic structure) linked to an RGDSP (SEQ ID NO: 9) peptide (protein)
chain: QAMPPEELNKLLANAKELTNILKYHIGDEILVSGGIGALVRLKSLQGDKLEVSSKNNVVSVNKEPVAETDIMEFGGRGDSPDDDDDLE
modifications: MFK12
- βig-h3-mediated cell adhesion [2]: inhibited the adhesion and migration of a cell even at a lower concentration than that in Comparative Example 1; also recorded: concentration-dependently inhibited
- βig-h3-mediated cell migration (NIH3T3): inhibited the adhesion and migration of a cell even at a lower concentration than that in Comparative Example 1; also recorded: concentration-dependently inhibited
- arthritis inhibition (clinical arthritis index) ([3]; 10 mg/kg daily): about 27%
- arthritis inhibition (clinical arthritis index) ([3]; 30 mg/kg daily): about 60%
- arthritis inhibiting effect (clinical arthritis index), in words ([3]; daily into the abdominal cavity): concentration-dependently inhibited
- proliferation of Synovial membrane tissue cells ([4]; 10 mg/kg): hyper-proliferated
- state of the articulation region ([4]; 10 mg/kg): the articulation region was destroyed
- vascularization induction and cell adhesion protein expression (CD31, ICAM-1) ([4]; 10 mg/kg): increased as much as that in the control group
- proliferation of Synovial membrane tissue cells ([4]; 30 mg/kg): inhibited compared to that in the control group
- shape of the foot tissue ([4]; 30 mg/kg): nearly normal
- vascularization induction and adhesion protein expression (CD31, ICAM-1) ([4]; 30 mg/kg): reduced
- expression levels of TNF-a, IL-6, IL-1β, ICAM-1, and RANKL vs arthritis control group [5]: reduced levels
- expression levels of ICAM-1 and RANKL vs arthritis control group (ICAM-1 and RANKL): reduced levels
- body weight change compared to control group [6]: abnormal findings in the weight change were not observed

B5: hsdhFas-1: peptide prepared by removing H1 and H2 regions from the fourth fas-1 domain of human βig-h3 (protein)
chain: RALPPRERSRLLGDAKELANILKYHIGDEILVSGGIGALVRLKSLQGDKLEVSLKNNVVSVNKEPVAEPDIM
modifications: hsdhFas-1
notes: peptide prepared by removing H1 and H2 regions from the fourth fas-1 domain of human βig-h3
- βig-h3-mediated adhesion [7]: concentration-dependently inhibited
- βig-h3-mediated cell migration (NIH3T3): concentration-dependently inhibited
